Reference: patent publication US20220265772A1, “USES OF DAN FAMILY BMP ANTAGONISTS FOR INHIBITING OCULAR NEOVASCULARIZATION AND TREATING OCULAR CONDITIONS” (9636137 Canada Inc., priority 2019, published 2022)

How the values were obtained:
Assay type in all cases: cell-based, human
HUVECs [1] = assay: Scratch (wound healing) assay, endothelial cell migration
Description: Confluent HUVEC monolayers were grown in 6-well plates. Cells were starved 18 hours in EBM-2 medium with 1% FBS. A horizontal wound was created using a sterile 200 μl pipette tip. Next, the cells were washed with EBM2 at 37° C. and incubated in EBM-2 supplemented with VEGF-A (25 ng/ml) or DAND5 (60 ng/ml) at 37° C. for 16 hours. Pictures of scratch wounds were taken just before stimulation (time 0) and after 16 h. Migration % was calculated using ImageJ™ software.
To evaluate the cellular mechanisms underlying the inhibitory effects of DAND5 on endothelial cells sprouting, we assessed the effects of DAND5 on endothelial cell migration and proliferation. Endothelial cell migration plays an essential role in neovascularization, as endothelial tip cells will need to migrate in response to VEGF, and constitutes one of the first steps of the angiogenic response. To address the effects of DAND5 on EC migration, HUVECs were subjected to a wound healing assay. Briefly, a scratch was performed on a confluent monolayer of HUVECs, and wound closure was evaluated at the time of the scratch and again after […].

HUVECs [2] = assay: Free radicals / ROS in HUVECs (DCFDA, MitoSoxRed); conditions: HUVECs
Description: FIG. 8 is a panel with graphs and pictures showing that Dand5 induces mitochondrial oxidative stress and alters ATP levels in HUVECs. FIG. 8A: HUVEC cells were treated with Dand5 in the presence or not of N-acetylcysteine (NAC) for up to 48 hours. Cells were then incubated with H2DCFDA. Hydrogen peroxide treated cells (H2O2) were included as a positive control. Fluorescence was measured at Ex: 485 nm and Em: 535 nm in a plate reader. Relative Fluorescence Units (RFU) were generated by normalizing the reading of each well to Hoescht staining (n=3,*p<0.05 **p<0.001). FIG. 8B: HUVEC cells were treated with Dand5 in for up to 48 hours. Cells were incubated with MitoSox Red. 3-nitro-proprionic acid (3-NP) treated cells were also examined as a positive control. Fluorescence was measured at Ex: 544 nm and Em: 590 nm. Relative Fluorescence Units (RFU) were generated by normalizing the reading of each well to Hoescht staining (n=3,*p<0.05). FIG. 8C: Primary culture of choroidal sprouts were treated with Dand5 in the absence or presence of NAC. FIG. 8D: Quantification of sprouting area by Image J. FIG. 8E: The ratio of NAD+ to NADH in whole cell extracts was determined using an Alcohol Dehydrogenase/Malate Dehydrogenase enzymatic cycling assay. Cells treated to hypoxic conditions (4% O2 for 3 hours) were included as a positive control (n=3,*p<0.05, **p<0.01). Likewise, glucose uptake was reduced in Dand5-treated HUVECs after 1 hour, while lactate levels were increased (lower panel). FIG. 8F: ATP levels were reduced in HUVECs exposed to Dand5 at 1, 6 and 24 hours (n=3,*p=0.05).
(§1) We exposed or not HUVECs to recombinant DAND5 and measured the concentration of free radicals using DCFDA and MitoSoxRed™. […] To further test this, we measure the NAD+/NADH ratio in cells treated or not with DAND5. […] Likewise, glucose uptake was reduced and lactate levels were increased in DAND5-treated HUVECs after 1 h (FIG. 8E, lower panel).

HUVECs [3] = assay: Endothelial cell proliferation (phospho-histone H3, neutral red, EdU flow cytometry)
Description: Sub-confluent HUVECs were cultured overnight in starvation medium (EBM2-1% FBS) in the presence or absence of 60 ng/ml DAND5, followed by VEGF stimulation for 1 hour. HUVECs were subjected with a pulse of 5-ethynyl-2′-deoxyuridine (EdU) for 1 hour, and flow cytometry analysis of EdU incorporation was performed as previously described.
The effects of DAND5 on EC proliferation were assessed by treating sub-confluent HUVECs with complete EC medium for 18 hours with DAND5. Cell mitosis was measured by evaluating the proportion phospho-histone H3 (PH3)-positive ECs following DAND5 treatment.

[4] = tested on: mitochondrial metabolism in HUVECs; assay: NAD+/NADH cycling, ATP, glucose and lactate assays in HUVECs
Description: HUVECs plated into 100 mm dishes were treated with COCO for various time points. NAD+ and NADH were extracted using ice cold alkali (0.5M NaOH, 1 mM EDTA) and acidic buffers (0.1M HCl) respectively. Extracts were heated at 60° C. for 30 min and buffers were neutralized with either the NADH (100 mM Tris-HCl pH 8.1, 0.05M HCl) or NAD+(0.4M Tris) neutralization buffers. To attain measurable quantities of NAD+ or NADH, an amplifying cycling assay was performed. Extracts and NAD+ standards were incubated with cycling reagent (67 mM Tris-HCl pH 8, 200 mM EtOH, 1.3 mM beta-mercaptoethanol, 0.01% BSA, 2 mM oxaloacetic acid, 0.5 μg/mL malate dehydrogenase, 5 μg/mL alcohol dehydrogenase) for 1 hour at room temperature. All samples were heated for 5 min at 100 C to stop enzymatic reactions then cooled on ice. For detection, extracts were incubated in an indicator buffer (50 mM 2-amino-2-methyl-propanol pH 9.9, 200 μM NAD+, 10 mM glutamate, 0.04% BSA, 5 μg/mL malate dehydrogenase, 2 μg/mL glutamate oxaloacetate transaminase) for 10 min at room temperature. Then 100 μL if sample was transferred to a black 96-well plate. Fluorescence was detected using a plate reader (TECAN) at an excitation of 365 nm and emission of 460 nm. Standard curves were generated and the concentration of NAD+ and NADH were calculated from the standard curve (references: Kato T., et al. Analytical Biochemistry 53, 86-97 (1973); Lin S., et al, JBC. Vol 276, No. 38, 36000-36007 (2001)).
ATP detection: HUVECs were plated into 100 mm dishes and treated with COCO for various time points. ATP was measured by luminescence (ATP Detection Assay Kit; Cayman Chemicals). Metabolite measurements: HUVECs were cultured for up to 48 hours in the presence or absence of COCO. Culture media was collected at 1 h, 3 h, 6 h, 12 h, 24 h and 48 h, centrifuged at 12000 rpm for 5 min, aliquoted and stored at −80 C. Media was analyzed for glucose concentration using a BioProfiler 400 Analyzer (BioNova). For measurements of lactate, the culture media was analyzed using the Lactate Colorimetric/Fluorometric Assay Kit (BioVision, K607) as per the manufacturer's instructions.
as §1

B1: DAND5: human recombinant DAND5/COCO biologically active fragment produced in E. coli, predicted 18.2 kDa monomer, R&D systems 3047-CC-050 (protein)
chain: MRPEPQSPRPQSWAAANQTWALGPGALPPLVPASALGSWKAFLGLQKARQLGMGRLQRGQDEVAAVTLPLNPQEVIQGMCKAVPFVQVFSRPGCSAIRLRNHLCFGHCSSLYIPGSDPTPLVLCNSCMPARKRWAPVVLWCLTGSSASRRRVKISTMLIEGCHCSPKA
polarization of the Golgi apparatus towards the leading edge (HUVECs [1]; cells at the wound edge): did not significantly affect polarization of the Golgi apparatus towards the leading edge | wound closure (VEGF-induced cell migration) (HUVECs [1]; confluent HUVEC monolayer, DAND5 60 ng/ml, evaluated after 18 hours): significantly delayed wound closure compared to control treatment | free radicals (DCFDA) (HUVECs [2]; 24 h and 48 h post-treatment): induced elevation of free radicals 24 h and 48 h post-treatment | mitochondrial reactive oxygen species (MitoSoxRed), time course (HUVECs [2]; time-course analysis): induced before cytosolic ROS | EdU incorporation (HUVECs [3]; HUVECs, 60 ng/ml DAND5 overnight, VEGF stimulation): reduced Edu incorporation in response to VEGF stimulation | proliferation of cultured ECs, cell numbers by neutral red incorporation (HUVECs [3]; HUVECs, 6 days): prevented the proliferation of cultured ECs | phospho-histone H3 (PH3) staining, mitotic index (HUVECs [3]; sub-confluent HUVECs, complete EC medium, 18 hours): significant decrease in PH3 staining | NAD+/NADH ratio ([4]; HUVECs exposed to DAND5): decreased | glucose uptake ([4]; HUVECs, after 1 h): reduced | lactate levels ([4]; HUVECs, after 1 h): increased | ATP levels ([4]; HUVECs, after 1 h of treatment): reduced | ATP levels ([4]; HUVECs, at 1, 6 and 24 hours): reduced
